We go through 3 molecules from patent publication US20240218065A1 (SHENGHE CHINA BIOPHARMACEUTICAL, published 2024).

Test [1] deals with T1, Human-NKP30-His (Kactus, cat: NKP-HM430) (human, UniProt O14931 19-138, limits assumed).
T1 construct: also called NKP30 protein; NKP30-his protein; not shown: His tag
T1 sequence (looked up): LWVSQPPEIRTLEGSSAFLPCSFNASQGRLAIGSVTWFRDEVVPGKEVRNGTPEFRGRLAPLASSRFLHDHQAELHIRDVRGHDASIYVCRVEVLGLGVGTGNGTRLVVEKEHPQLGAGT
Description: ELISA: Human-NKP30-His coated, antibody titrated 3-fold from 10 µg/mL, HRP goat anti-human IgG-Fc, OD450-OD570. How it is done:
Human-NKP30-His (Kactus, cat: NKP-HM430) was diluted to […] with PBS buffer at pH 7.4, added into the 96-well ELISA plate at 100 μL per well, coated overnight at 4° C., and blocked with 1% BSA blocking solution for 1 hour. The plate was washed 3 times with PBST, and the constructed antibodies were diluted to 10 μg/mL with 0.5% BSA sample diluent as the starting concentration, and then diluted by 3-fold gradient (11 gradients in total). A negative control (blank well and IgG1 isotype control) and a positive control were set, and the positive control was a NKP30 humanized antibody (sequence shown in SEQ ID No. 28), and incubated at 37° C. for 1 h at 100 μL per well. The plate was washed 3 times with PBST, and then HRP-labelled goat anti-human IgG-Fc was diluted with the sample diluent at 1:20000. 100 μL was added into each well, and incubated at room temperature for 1 hour. The plate was washed 4 times with PBST, and 100 μL of TMB substrate was added into each well, and incubated at room temperature without light for 10 minutes. 100 μL of 1 M HCl solution was added into each well to terminate the color development reaction. The absorbance value of each well in the 96-well plate was determined by selecting the wavelength of 450 nm and the reference wavelength of 570 nm on a multifunctional enzyme marker, and the absorbance value (OD)=OD₄₅₀ₙₘ−OD₅₇₀ₙₘ. The logarithm of the concentration of the constructed antibody was taken as the abscissa, and the measured absorbance value of each well was taken as the ordinate, and the Sigmoidaldose-response (Variable Slope) method (GraphPad Prism software, GraphPad Software, San Diego, California) was selected for nonlinear regression to obtain the binding curve of the target antibody to NKP30.

For test [2], the target named is T2, Human-GPC3-His (human, UniProt P51654 25-559, limits assumed).
T2 construct: Coated on the ELISA plate; also called GPC-3 protein; GPC3 protein; not shown: His tag
Description: ELISA: Human-GPC3-His coated at 0.5 µg/mL, antibody titrated 3-fold from 10 µg/mL, HRP goat anti-human IgG-Fc, OD450-OD570. How it is done: (§1) Human-GPC3-His was diluted to 0.5 μg/mL with PBS buffer at pH 7.4, added into the 96-well ELISA plate at 100 μL per well, coated overnight at 4° C., and blocked with 1% BSA blocking solution for 1 hour. The plate was washed 3 times with PBST, and the constructed antibody was diluted to 10 μg/mL with 0.5% BSA sample diluent as the starting concentration, and then diluted by 3-fold gradient (11 gradients in total) and incubated at 37° C. for 1 h at 100 μL per well. The plate was washed 3 times with PBST, and then HRP-labelled goat anti-human IgG-Fc was diluted with the sample diluent at 1:20000. 100 μL was added into each well, and incubated at room temperature for 1 hour. A negative control (blank well and IgG1 isotype control) and a positive control were set, and the positive control was a GPC-3 and CD3 bispecial antibody from the literature Hs, A, et al. “Engineering a bispecific antibody with a common light chain: Identification and optimization of an anti-CD3 epsilon and anti-GPC3 bispecific antibody, ERY974.” Methods 154 (2019): 10-20. (The GPC-3 and CD3 bispecial antibody sequence consists of SEQ ID No. 22, SEQ ID No. 23, and SEQ ID No. 24). The plate was washed 4 times with PBST, and 100 μL of TMB substrate was added into each well, and incubated at room temperature without light for 10 minutes. 100 μL of 1 M HCl solution was added into each well to terminate the color development reaction. The absorbance value of each well in the 96-well plate was determined by selecting the wavelength of 450 nm and the reference wavelength of 570 nm on a multifunctional enzyme marker, and the absorbance value (OD)=OD₄₅₀ₙₘ−OD₅₇₀ₙₘ. The logarithm of the concentration of the constructed antibody was taken as the abscissa, and the measured absorbance value of each well was taken as the ordinate, and the Sigmoidaldose-response (Variable Slope) method (GraphPad Prism software, GraphPad Software, San Diego, California) was selected for nonlinear regression to obtain the binding curve of the target antibody to the GPC-3 protein.
A general note: In an ELISA, binding on a coated surface is turned into a signal by an enzyme label.

The target of test [3] is T2, Human-GPC3-His. The description is as above. As for the experimental part:
as §1
The source holds these as a separate data set.

Like-named read-outs stand apart in the source and are kept apart here.

T2 sequence (P51654 25-559 limits assumed): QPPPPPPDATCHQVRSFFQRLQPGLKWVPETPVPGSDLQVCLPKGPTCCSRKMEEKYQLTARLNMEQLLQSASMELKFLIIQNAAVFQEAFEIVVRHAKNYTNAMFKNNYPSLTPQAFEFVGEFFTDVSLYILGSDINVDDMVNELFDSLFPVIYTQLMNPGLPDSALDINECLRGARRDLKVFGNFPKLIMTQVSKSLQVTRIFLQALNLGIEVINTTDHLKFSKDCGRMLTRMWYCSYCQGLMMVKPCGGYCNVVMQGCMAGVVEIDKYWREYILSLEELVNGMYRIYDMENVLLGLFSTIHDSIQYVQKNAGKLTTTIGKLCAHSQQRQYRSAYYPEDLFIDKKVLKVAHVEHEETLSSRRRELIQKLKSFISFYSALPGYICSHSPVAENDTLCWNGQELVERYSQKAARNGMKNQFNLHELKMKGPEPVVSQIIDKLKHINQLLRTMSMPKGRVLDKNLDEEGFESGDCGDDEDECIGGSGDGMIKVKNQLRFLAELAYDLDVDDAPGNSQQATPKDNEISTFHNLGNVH

B1: GN15-D (bispecific antibody, human IgG1, kappa)
light: DVVMTQSPLSLPVTPGEPASISCRSSQSLVHSNRNTYLHWYLQKPGQSPQLLIYKVSNRFSGVPDRFSGSGSGTDFTLKISRVEAEDVGVYYCSQNTHVPPTFGQGTKLEIKRTVAAPSVFIFPPSDEQLKSGTASVVCLLNNFYPREAKVQWKVDNALQSGNSQESVTEQDSKDSTYSLSSTLTLSKADYEKHKVYACEVTHQGLSSPVTKSFNRGEC
heavy 1: not shown
heavy 2: QVQLVQSGAEVKKPGASVKVSCKASGYTFTDYEMHWVRQAPGQGLEWMGALDPKTGDTAYSQKFKGRVTLTADKSTSTAYMELSSLTSEDTAVYYCTRFYSYTYWGQGTLVTVSSASTKGPSVFPLAPSSKSTSGGTAALGCLVKDYFPEPVTVSWNSGALTSGVHTFPAVLQSSGLYSLSSVVTVPSSSLGTQTYICNVNHKPSNTKVDKKVEPKSCDKTHTCPPCPGGGGSGGGGSPALLLLLLLRPPATRGITCPPPMSVEHADIWVKSYSLYSRERYICNSGFKRKAGTSSLTECVLNKATNVAHWTTPSLKCIRDPALVHQRPAPPSTVTTAGVTPQPESLSPSGKEGGGGSGGGGSAPELLGGPSVFLFPPKPKDTLMISRTPEVTCVVVDVSHEDPEVKFNWYVDGVEVHNAKTKPREEQYNSTYRVVSVLTVLHQDWLNGKEYKCKVSNKALPAPIEKTISKAKGQPREPQVYTLPPSRDELTKNQVSLTCLVKGFYPSDIAVEWESNGQPENNYKTTPPVLDSDGSFFLASKLTVDKSRWQQGNVFSCSVMHEALHNHYTQKSLSLSPGKGGGGSGGGGSGGGGSGGGGSEVQLVESGGGLVQPGGSLRLSCAASGITFSRSVMGWFRQAPGKLRELVAGITSDDNTDYADSVKGRFTISRDNSKNTLYLQMNSLRAEDTAVYYCNILPDSRLGWGQGTLVTVSS
notes: Trifunctional antibody against GPC-3 and NKP30 with IL-15 and IL-15Rα sushi between CH1 and CH2; also called constructed antibody GN15-D; multifunctional antibody
For B1, the “EC50 (read off the curve)” value was approximately 0.03 µg/mL in test [1] and approximately 0.04 µg/mL in the test with Human-GPC3-His [2].

B2: GN15-B (bispecific antibody, human IgG1, kappa)
light: DVVMTQSPLSLPVTPGEPASISCRSSQSLVHSNRNTYLHWYLQKPGQSPQLLIYKVSNRFSGVPDRFSGSGSGTDFTLKISRVEAEDVGVYYCSQNTHVPPTFGQGTKLEIKRTVAAPSVFIFPPSDEQLKSGTASVVCLLNNFYPREAKVQWKVDNALQSGNSQESVTEQDSKDSTYSLSSTLTLSKADYEKHKVYACEVTHQGLSSPVTKSFNRGEC
heavy 1: not shown
heavy 2: EVQLVESGGGLVQPGGSLRLSCAASGITFSRSVMGWFRQAPGKLRELVAGITSDDNTDYADSVKGRFTISRDNSKNTLYLQMNSLRAEDTAVYYCNILPDSRLGWGQGTLVTVSSGGGGSGGGGSGGGGSQVQLVQSGAEVKKPGASVKVSCKASGYTFTDYEMHWVRQAPGQGLEWMGALDPKTGDTAYSQKFKGRVTLTADKSTSTAYMELSSLTSEDTAVYYCTRFYSYTYWGQGTLVTVSSASTKGPSVFPLAPSSKSTSGGTAALGCLVKDYFPEPVTVSWNSGALTSGVHTFPAVLQSSGLYSLSSVVTVPSSSLGTQTYICNVNHKPSNTKVDKKVEPKSCDKTHTCPPCPGGGGSGGGGSPALLLLLLLRPPATRGITCPPPMSVEHADIWVKSYSLYSRERYICNSGFKRKAGTSSLTECVLNKATNVAHWTTPSLKCIRDPALVHQRPAPPSTVTTAGVTPQPESLSPSGKEGGGGSGGGGSAPELLGGPSVFLFPPKPKDTLMISRTPEVTCVVVDVSHEDPEVKFNWYVDGVEVHNAKTKPREEQYNSTYRVVSVLTVLHQDWLNGKEYKCKVSNKALPAPIEKTISKAKGQPREPQVYTLPPSRDELTKNQVSLTCLVKGFYPSDIAVEWESNGQPENNYKTTPPVLDSDGSFFLASKLTVDKSRWQQGNVFSCSVMHEALHNHYTQKSLSLSPGK
notes: Trifunctional antibody against GPC-3 and NKP30 with IL-15 and IL-15Rα sushi between CH1 and CH2; also called constructed antibody GN15-B; multifunctional antibody
For B2, the “EC50 (read off the curve)” value (in test [1]; with Human-GPC3-His [3]) was approximately 0.03 µg/mL throughout.

B3: GN15-C (bispecific antibody, human IgG1, kappa)
light: DVVMTQSPLSLPVTPGEPASISCRSSQSLVHSNRNTYLHWYLQKPGQSPQLLIYKVSNRFSGVPDRFSGSGSGTDFTLKISRVEAEDVGVYYCSQNTHVPPTFGQGTKLEIKRTVAAPSVFIFPPSDEQLKSGTASVVCLLNNFYPREAKVQWKVDNALQSGNSQESVTEQDSKDSTYSLSSTLTLSKADYEKHKVYACEVTHQGLSSPVTKSFNRGECGGGGSGGGGSGGGGSGGGGSEVQLVESGGGLVQPGGSLRLSCAASGITFSRSVMGWFRQAPGKLRELVAGITSDDNTDYADSVKGRFTISRDNSKNTLYLQMNSLRAEDTAVYYCNILPDSRLGWGQGTLVTVSS
heavy 1: not shown
heavy 2: QVQLVQSGAEVKKPGASVKVSCKASGYTFTDYEMHWVRQAPGQGLEWMGALDPKTGDTAYSQKFKGRVTLTADKSTSTAYMELSSLTSEDTAVYYCTRFYSYTYWGQGTLVTVSSASTKGPSVFPLAPSSKSTSGGTAALGCLVKDYFPEPVTVSWNSGALTSGVHTFPAVLQSSGLYSLSSVVTVPSSSLGTQTYICNVNHKPSNTKVDKKVEPKSCDKTHTCPPCPGGGGSGGGGSPALLLLLLLRPPATRGITCPPPMSVEHADIWVKSYSLYSRERYICNSGFKRKAGTSSLTECVLNKATNVAHWTTPSLKCIRDPALVHQRPAPPSTVTTAGVTPQPESLSPSGKEGGGGSGGGGSAPELLGGPSVFLFPPKPKDTLMISRTPEVTCVVVDVSHEDPEVKFNWYVDGVEVHNAKTKPREEQYNSTYRVVSVLTVLHQDWLNGKEYKCKVSNKALPAPIEKTISKAKGQPREPQVYTLPPSRDELTKNQVSLTCLVKGFYPSDIAVEWESNGQPENNYKTTPPVLDSDGSFFLASKLTVDKSRWQQGNVFSCSVMHEALHNHYTQKSLSLSPGK
notes: Trifunctional antibody against GPC-3 and NKP30 with IL-15 and IL-15Rα sushi between CH1 and CH2; also called constructed antibody GN15-C; multifunctional antibody
Regarding B3, the “EC50 (read off the curve)” value was approximately 0.05 µg/mL in test [1] and approximately 0.03 µg/mL with Human-GPC3-His [3].

One may read the EC50 (read off the curve) as the midpoint of the concentration-response curve. Lower therefore signals a more potent agent.
